Source: patent US20230272056A1 (Merck Sharp & Dohme, published 2023)
Where a chain is given by its changes, count along the chain named. In names and notes the source's numbering stands.

B1: 16BLM (antibody, human IgG1, kappa, L234A L235A, V domains shown)
VH: EVQLVQSGAEVKKPGASVKVSCKASGYTFTSYDMHWVRQAPGQGLEWMGRIDPQSGGIKYAQKFQGRATLTVDTSTSTAYMELSRLRSDDTAVYYCARWDYGGYFDVWGQGTLVTVSS
VL: DIQMTQSPSSLSASVGDRVTITCRASQDIYNYLNWYQQKPGKAVKLLIYYTSVLETGVPSRFSGSGSGTDYTLTISSLQPEDFATYFCQQGDTLPWTFGQGTKLEIKR
notes: IgG1 L234A L235A D265S/kappa; also called 79BLH; 52BMD
B2: 11BLM (antibody, human IgG1, kappa, L234A L235A, V domains shown)
VH: B1 VH with K59R
VL: B1 VL
notes: IgG1 L234A L235A D265S/kappa; also called 74BLH; 47BMD
B3: 18BLM (antibody, human IgG1, kappa, L234A L235A, V domains shown)
VH: B1 VH with W99Y, Y101H
VL: B1 VL with V53R
notes: IgG1 L234A L235A D265S/kappa; also called 81BLH; 54BMD
B4: 07BLM (antibody, human IgG1, kappa, L234A L235A, V domains shown)
VH: B1 VH with K59R
VL: B1 VL with N31S, V53N
notes: IgG1 L234A L235A D265S/kappa; also called 70BLH; 43BMD
B5: 19BLM (antibody, human IgG1, kappa, L234A L235A, V domains shown)
VH: B1 VH with W99Y, Y101H
VL: B1 VL with V53Y
notes: IgG1 L234A L235A D265S/kappa; also called 82BLH; 55BMD
B6: 15BLM (antibody, human IgG1, kappa, L234A L235A, V domains shown)
VH: B1 VH
VL: B1 VL with V53R
notes: IgG1 L234A L235A D265S/kappa; also called 78BLH; 51BMD
B7: 66BLH (Fab, V domains shown)
VH: B1 VH with W99Y, Y101H
VL: DIQMTQSPSSLSASVGDRVTITCRASQDIYNYLNWYQQKPGKAVKLLIYYTSRLETGVPSRFSGSGSGTDYTLTISSLQPEDFATYFCQQGDTLPWTFGQGTKLEIK
notes: also called 18BLM Fab
B8: 12BLM (antibody, human IgG1, kappa, L234A L235A, V domains shown)
VH: B1 VH with I58V
VL: B1 VL with T93E
notes: IgG1 L234A L235A D265S/kappa; also called 75BLH; 48BMD
B9: 65BLH (Fab, V domains shown)
VH: B1 VH
VL: B7 VL with T93E
notes: also called 17BLM Fab
B10: 82BJN (Fab, V domains shown)
VH: B1 VH with D33Y, H35N, I58V, D100H, Y104Q
VL: B1 VL with V53G, E55H, T56S
notes: also called VH W33Y H35N I58V D100H Y104Q / VL T30Y R53G (82BJN)

molecular target: T1, human LAP-TGFB1 Fc fusion (human); test: SPR pH 6.0, antigen captured on Fab 54BLH
T1 construct: also called human LAP-TGFβ1-Fc; human LAP-TGFβ-Fc isoform 1
Excerpt: (§1) A Series S C1 sensor chip (Cytiva, catalog BR100535) was immobilized with low densities of high affinity Fab 54BLH on a Biacore T200 instrument with 1×HBS-EP+(Teknova, catalog H8022). This surface served as a monovalent capture surface for a low-density layer of heterodimer human LAP-TGFβ1 complex leaving the second binding site exposed for monovalent kinetic binding analysis with both mAbs and Fabs. Immobilized flow cell 1 served as the reference and flow cells 2, 3 and 4 were used to evaluate the binding interaction between human LAP-TGFβ1 and yeast display mutant mAbs and Fabs.
(§2) Approximately 15-25 RU of human LAP-TGFβ1-Fc was captured to the Fab capture surface followed by injection of 1:3 serially diluted Fabs and mAbs from 6 nM to 0.07 nM (Fabs: 54BLH, 55BLH, 60BLH, 63BLH, 64BLH-mAbs: 69BLH, 70BLH) and 1:3 serially diluted Fab and mAbs from 60 nM to 0.74 nM (Fabs: 59BLH, 66BLH, 67BLH—mAbs: 74BLH, 75BLH, 78BLH, 79BLH, 81BLH, 82BLH) including 0 nM. The binding data was double referenced by subtraction of signal from a reference flow cell and the 0 nM injections for evaluation of Fabs and mAbs respectively. Binding rate constants were calculated/determined by fitting the data with a 1:1 binding model (Cytiva Biacore T200 Evaluation software 3.0).

T1 sequence (chain, as listed by the source limits assumed): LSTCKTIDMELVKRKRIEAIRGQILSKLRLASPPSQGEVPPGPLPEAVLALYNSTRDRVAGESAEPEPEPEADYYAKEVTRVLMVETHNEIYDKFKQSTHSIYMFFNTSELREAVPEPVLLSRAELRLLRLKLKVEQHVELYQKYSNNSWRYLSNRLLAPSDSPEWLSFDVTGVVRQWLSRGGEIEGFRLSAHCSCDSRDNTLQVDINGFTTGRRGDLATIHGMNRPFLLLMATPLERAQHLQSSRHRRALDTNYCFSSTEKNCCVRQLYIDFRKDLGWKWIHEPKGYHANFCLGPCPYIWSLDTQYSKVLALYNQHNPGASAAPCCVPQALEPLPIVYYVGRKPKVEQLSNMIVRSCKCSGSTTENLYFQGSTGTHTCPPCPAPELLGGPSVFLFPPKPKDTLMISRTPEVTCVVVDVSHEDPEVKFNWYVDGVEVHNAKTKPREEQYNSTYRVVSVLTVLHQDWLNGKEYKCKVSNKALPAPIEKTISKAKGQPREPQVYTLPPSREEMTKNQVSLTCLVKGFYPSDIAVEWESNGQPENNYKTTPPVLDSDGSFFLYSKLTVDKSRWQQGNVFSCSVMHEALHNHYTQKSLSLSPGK

Fab/mAb KD Ratio	Kd	koff	kon	Binder
1.6	110 pM	0.00122 s⁻¹	1.12e+07 M⁻¹ s⁻¹	B1
1.3	133 pM	0.000892 s⁻¹	6.75e+06 M⁻¹ s⁻¹	B2
1.8	9110 pM	0.0489 s⁻¹	5.65e+06 M⁻¹ s⁻¹	B3
2.2	155 pM	0.00131 s⁻¹	8.47e+06 M⁻¹ s⁻¹	B4
5.5	3430 pM	0.0365 s⁻¹	1.07e+07 M⁻¹ s⁻¹	B5
3.2	331 pM	0.00399 s⁻¹	1.21e+07 M⁻¹ s⁻¹	B6
	16800 pM	0.0329 s⁻¹	1.96e+06 M⁻¹ s⁻¹	B7
2.2	136 pM	0.000936 s⁻¹	6.86e+06 M⁻¹ s⁻¹	B8

molecular target: T1, human LAP-TGFB1 Fc fusion; test: SPR pH 7.4, antigen captured on Fab 54BLH
Excerpt: as §1, §2

Fab/mAb KD Ratio	Kd	koff	kon	Binder
1.6	38 pM	0.000552 s⁻¹	1.44e+07 M⁻¹ s⁻¹	B1
1.7	26 pM	0.000374 s⁻¹	1.47e+07 M⁻¹ s⁻¹	B2
3.3	959 pM	0.00518 s⁻¹	5.4e+06 M⁻¹ s⁻¹	B3
0.3	47 pM	0.000671 s⁻¹	1.45e+07 M⁻¹ s⁻¹	B4
13.3	178 pM	0.014 s⁻¹	7.82e+07 M⁻¹ s⁻¹	B5
4	87.6 pM	0.00196 s⁻¹	2.22e+07 M⁻¹ s⁻¹	B6
	3130 pM	0.0181 s⁻¹	5.76e+06 M⁻¹ s⁻¹	B7
3.2	11.1 pM	0.000212 s⁻¹	1.91e+07 M⁻¹ s⁻¹	B8

molecular target: T2, human LAP-TGFB2 Fc fusion (human); test: SPR pH 7.4
T2 construct: also called human LAP-TGFβ2; LAP-TGFβ isoform 2
T2 sequence (chain, as listed by the source limits assumed): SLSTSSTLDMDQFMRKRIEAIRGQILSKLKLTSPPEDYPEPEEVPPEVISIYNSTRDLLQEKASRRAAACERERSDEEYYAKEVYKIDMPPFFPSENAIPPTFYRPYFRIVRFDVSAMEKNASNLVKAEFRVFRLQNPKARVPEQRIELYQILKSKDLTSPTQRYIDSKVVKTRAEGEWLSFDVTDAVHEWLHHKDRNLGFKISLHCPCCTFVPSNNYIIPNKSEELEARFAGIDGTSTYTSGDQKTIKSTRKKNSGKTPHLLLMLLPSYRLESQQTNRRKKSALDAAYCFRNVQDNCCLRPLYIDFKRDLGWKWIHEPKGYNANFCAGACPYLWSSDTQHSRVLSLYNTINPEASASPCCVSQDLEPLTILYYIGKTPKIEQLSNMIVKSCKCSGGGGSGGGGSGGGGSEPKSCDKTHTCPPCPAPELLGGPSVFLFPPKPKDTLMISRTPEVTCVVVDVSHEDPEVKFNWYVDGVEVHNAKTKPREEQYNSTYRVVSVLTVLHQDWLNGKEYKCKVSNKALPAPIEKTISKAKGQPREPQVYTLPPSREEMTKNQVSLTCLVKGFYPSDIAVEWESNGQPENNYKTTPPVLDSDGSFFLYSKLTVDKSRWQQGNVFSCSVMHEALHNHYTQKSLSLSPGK

binding result	Binder
no binding (tested: 1000 nM Fab)	B9
no binding (tested: 1000 nM Fab)	B7

molecular target: T3, human LAP-TGFB3 Fc fusion (human); test: SPR pH 7.4
T3 construct: also called human LAP-TGFβ3; LAP-TGFβ isoform 3
T3 sequence (chain, as listed by the source limits assumed): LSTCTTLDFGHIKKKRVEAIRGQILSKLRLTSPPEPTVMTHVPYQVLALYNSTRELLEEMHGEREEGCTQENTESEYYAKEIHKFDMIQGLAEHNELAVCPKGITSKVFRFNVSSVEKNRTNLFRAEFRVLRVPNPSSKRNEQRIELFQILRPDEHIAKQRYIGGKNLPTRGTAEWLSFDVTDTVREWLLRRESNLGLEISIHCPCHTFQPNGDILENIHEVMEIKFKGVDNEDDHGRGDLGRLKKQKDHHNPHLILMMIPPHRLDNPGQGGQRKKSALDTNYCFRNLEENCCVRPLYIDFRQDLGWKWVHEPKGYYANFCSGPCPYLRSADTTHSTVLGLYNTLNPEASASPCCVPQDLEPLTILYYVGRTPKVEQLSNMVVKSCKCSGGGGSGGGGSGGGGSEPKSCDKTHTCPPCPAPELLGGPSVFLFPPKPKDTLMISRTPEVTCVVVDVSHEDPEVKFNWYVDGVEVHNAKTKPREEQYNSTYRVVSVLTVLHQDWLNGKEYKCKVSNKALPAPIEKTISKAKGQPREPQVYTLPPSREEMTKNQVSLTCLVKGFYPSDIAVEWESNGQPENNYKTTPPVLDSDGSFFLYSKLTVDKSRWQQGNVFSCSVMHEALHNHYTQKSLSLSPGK

binding result	Binder
no binding (tested: 1000 nM Fab)	B9
no binding (tested: 1000 nM Fab)	B7

molecular target: T2, human LAP-TGFB2 Fc fusion; test: SPR
Excerpt: (§3) This Example describes the isoform specificity of the yeast display mutants to bind to human LAP-TGFβ isoforms 1, 2, and 3 using surface plasmon resonance. A Series S CM4 sensor chip (GE Healthcare, catalog BR100534) was immobilized with an anti-human Fc capture antibody following the kit protocol (GE Healthcare, catalog BR100839) on a Biacore T200 instrument with 1× HBS-EP+ (Teknova, catalog H8022). […] Binding specificity experiments between human LAP-TGFβ isoforms 2 and 3 and yeast display mutants were performed in 1× HBS-EP+ with 0.1 mg/mL BSA at 25° C. Approximately 20-40 RU amounts of human LAP-TGFβ2 and 3 were captured to the anti-human Fc surface followed by injection of 1000 nM Fab including a negative control 0 nM Fab. The binding data were double referenced by subtraction of signal from a reference (capture surface only) flow cell and the negative control 0 nM Fab injection. Binding rate constants were determined by fitting the data with a 1:1 binding model (GE Healthcare Biacore T200 Evaluation software 3.0).

binding result	Binder
no binding (tested: 1000 nM Fab)	B10

molecular target: T3, human LAP-TGFB3 Fc fusion; test: SPR
Excerpt: as §3

binding result	Binder
no binding (tested: 1000 nM Fab)	B10

molecular target: T1, human LAP-TGFB1 Fc fusion; test: SPR pH 7.4, antigen-Fc captured, Fab analyte

Fold improvement in KD	Kd	koff	kon	Binder
401 fold	146 pM	0.00107 s⁻¹	7.33e+06 M⁻¹ s⁻¹	B9
16 fold	3730 pM	0.00764 s⁻¹	2.05e+06 M⁻¹ s⁻¹	B7

molecular target: T1, human LAP-TGFB1 Fc fusion; test: SPR pH 7.4, antigen-Fc captured, Fab analyte; remark: another data set of the same source

Kd	koff	kon	Binder
146 pM	0.00107 s⁻¹	7.33e+06 M⁻¹ s⁻¹	B9

molecular target: human LAP-TGFβ1 expressed on P3U1 cells (human, UniProt P01137 30-390); test: cell-based or functional assay
Sequence (P01137 30-390): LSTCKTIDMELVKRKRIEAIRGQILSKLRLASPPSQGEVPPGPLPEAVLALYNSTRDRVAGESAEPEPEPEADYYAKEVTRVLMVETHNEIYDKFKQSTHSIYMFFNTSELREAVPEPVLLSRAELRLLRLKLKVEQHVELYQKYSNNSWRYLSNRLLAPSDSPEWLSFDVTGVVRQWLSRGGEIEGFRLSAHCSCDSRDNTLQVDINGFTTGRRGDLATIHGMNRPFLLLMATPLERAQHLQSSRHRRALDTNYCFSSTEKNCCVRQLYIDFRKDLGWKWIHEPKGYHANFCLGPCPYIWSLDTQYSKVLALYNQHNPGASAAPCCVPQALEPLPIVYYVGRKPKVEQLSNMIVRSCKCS

Average EC50	ELISA assay 2 EC50	ELISA assay #1 EC50	Binder
0.104 µg/mL	0.126 µg/mL	0.0816 µg/mL	B1
0.083 µg/mL	0.112 µg/mL	0.0539 µg/mL	B2
0.052 µg/mL	0.006 µg/mL	0.0982 µg/mL	B3
0.076 µg/mL	0.119 µg/mL	0.0332 µg/mL	B4
0.179 µg/mL	0.205 µg/mL	0.152 µg/mL	B5
0.231 µg/mL	0.243 µg/mL	0.219 µg/mL	B6
0.063 µg/mL	0.096 µg/mL	0.0295 µg/mL	B8

molecular target: T1, human LAP-TGFB1 Fc fusion; test: SPR

Fold change in KD from pH 7.4 to pH 6	Binder
0.4 fold	B9

molecular target: T4, human LAP-TGFβ1 (construct not stated) (human, UniProt P01137 30-390); test: KinExA, mAb as constant binding partner
T4 construct: also called human LAP-TGFβ isoform 1; titrant
Protocol: An orthogonal kinetic exclusion assay (KinExA) method was used in this study to measure the affinities of affinity-matured anti-LAP-TGFβ1 antibodies (referred to as the constant binding partner, CBP) and human LAP-TGFβ1 (referred to as the titrant). To determine the free CBP concentration in solution, biotinylated human LAP-TGFβ1 coated PMMA (Sapidyne, catalog 440176) beads were prepared by first coating with biotin-BSA (ThermoScientific, catalog 29130) followed by streptavidin (Invitrogen, catalog S888), and a final coat with biotinylated human LAP-TGFβ1-Fc.
For association rate analysis, an experimentally optimized constant concentration of CBP and titrant, were mixed 1:1 and free CBP was measured at timed intervals ranging from 15 to 10000 seconds. […] The data were analyzed with KinExA Pro software (version 4.4.26) where the free CBP binding signals were converted into percent free response, plotted against time (seconds) and processed with the n-curve software “Kinetics, Direct” analysis method.
For equilibrium affinity analysis, two experimentally optimized CBP concentrations were combined with 1:2 serially diluted titrant, human LAP-TGFβ1, and incubated at room temperature to achieve equilibrium. […] The data was analyzed with KinExA Pro software (version 4.4.26) where the free CBP binding signals were converted into percent free response and plotted against the titrant concentration series. The equilibrium KD was determined by processing with n-curve software “Equilibrium” analysis method.

T4 sequence (P01137 30-390 limits assumed): as the sequence (P01137 30-390) above

Kd	koff	kon	Binder
2.75 pM	1.38e-05 s⁻¹	5.03e+06 M⁻¹ s⁻¹	B1
1.33 pM	8.14e-06 s⁻¹	1.63e+07 M⁻¹ s⁻¹	B2
62.1 pM	6.09e-06 s⁻¹	98300 M⁻¹ s⁻¹	B3
2.24 pM	2.82e-05 s⁻¹	1.28e+07 M⁻¹ s⁻¹	B4
68 pM	1.98e-06 s⁻¹	29200 M⁻¹ s⁻¹	B5
2.35 pM	2.56e-05 s⁻¹	1.09e+07 M⁻¹ s⁻¹	B6
0.367 pM	7.71e-06 s⁻¹	2.04e+07 M⁻¹ s⁻¹	B8

molecular target: T1, human LAP-TGFB1 Fc fusion; test: SPR pH 6.0, antigen-Fc captured, Fab analyte
Protocol: A Series S CM4 sensor chip (Cytiva, catalog BR100534) was immobilized with an anti-human Fc capture antibody following the kit protocol (Cytiva, catalog BR100839) on a Biacore T200 instrument with 1× HBS-EP+ (Teknova, catalog H8022). […] The binding data were double referenced by subtraction of signal from a reference (capture surface only) flow cell and the 0 nM Fab injection. Binding rate constants were determined by fitting the data with a 1:1 binding model (Cytiva Biacore T200 Evaluation software 3.0).

koff	kon	Binder
0.0221 s⁻¹	2.09e+06 M⁻¹ s⁻¹	B7

molecular target: T1, human LAP-TGFB1 Fc fusion; test: SPR, antigen-Fc captured, Fab analyte
Excerpt: as §3

Fold improvement in KD	Kd	koff	kon	Binder
8610 fold	9.28 pM	2.6e-05 s⁻¹	2.81e+06 M⁻¹ s⁻¹	B10
